From the supplement of paper PMC10567573

B1: BTBD1 (parent)
chain: FVLGKGRGAAAAGGPQRIPAHRFV
B2: KRT13 (parent)
chain: KTIEELRDKILTATIENNRVILEI

Variants of: B1
Assay: protein stability index of a GFP-peptide fusion (GPS, HEK-293T) (PSI 1-6); higher = more stable
Conditions: c terminus: a fixed tail appended
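Note: lentivirally expressed fusions sorted by FACS into six bins by GFP to DsRed ratio, PSI derived from sequencing read proportions per bin multiplied by bin number.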

Variant | protein stability index
V2Q | 3
V2A | 1.99
V2F | 1.67
V2N | 3.23
V2M | 2.21
V2H | 2.22
V2W | 1.76
V2T | 2.35
V2I | 1.68
V2D | 2.88
V2C | 2.18
V2G | 2.74
V2K | 2.85
V2Y | 1.8
V2L | 1.97
V2E | 3.38
V2S | 3.35
L3D | 2.2
L3N | 2.12
L3M | 1.92
L3I | 1.68
L3F | 1.61
L3C | 1.67

Variant | protein stability index
L3G | 1.61
L3H | 2.63
L3E | 1.56
L3A | 2.17
L3K | 2.2
F1S | 2.92
F1I | 1.91
F1N | 3.31
F1T | 3.32
F1Q | 3.28
F1M | 2.29
F1C | 2.22
F1L | 2.51
F1A | 2.66
F1Y | 1.26
F1W | 1.95
F1P | 3.04
F1K | 2.99
F1H | 3.4
F1G | 3.51
F1V | 2.21
F1R | 3.35
F1D | 3.02

Variants of: B2
Assay: as above
Conditions: c terminus: a fixed tail appended

Variant | protein stability index
E16M | 2.72
E16F | 3.08
E16W | 3.31
E16C | 2.33
E16H | 2.52
E16V | 2.8
E16G | 2.38
E16L | 3.35
E16D | 3.13
E16Q | 3.1
E16Y | 1.32
E16A | 3.13
E16S | 2.3
L11N | 2.85
L11T | 1.91
L11F | 2.34
L11D | 1.57
L11Q | 2.72
L11G | 1.87
L11M | 2.94
L11H | 1.52
L11Y | 3.58
L11K | 1.59
L11C | 2.33

Variant | protein stability index
L11R | 1.39
L11P | 1.95
L11E | 1.92
L11A | 1.3
L11S | 2.68
E4V | 2.4
E4M | 1.7
E4R | 3.26
E4T | 3.39
E4S | 3.44
V20R | 1.72
V20W | 3.15
V20N | 2.57
V20K | 2.1
V20P | 1.78
V20L | 3.48
V20T | 2.33
V20Y | 1.78
V20E | 2.27
V20G | 1.6
V20Q | 2.05
V20A | 1.82
V20D | 2.35
V20S | 2.01

Variant | protein stability index
V20I | 2.69
V20F | 1.8
V20H | 1.6
T12N | 2.83
T12H | 2.66
T12A | 2.5
T12Q | 2.65
T12I | 3.39
T12Y | 3.8
T12P | 2.42
T12G | 1.59
T12D | 1.76
T12R | 1.88
T12V | 3.5
I10P | 2.7
I10F | 3.07
I10Y | 3.2
I10T | 1.43
I10V | 1.75
I10W | 3.93
I10Q | 1.54
I10C | 2.28
I10R | 2.31
I10H | 2.12

Variant | protein stability index
I10A | 2.17
I10S | 2.2
I10M | 2.3
I10G | 1.69
I10L | 1.47
I10E | 2
I10N | 1.78
I10K | 1.55
I10D | 1.73
I21E | 2.19
I21P | 2.44
I21Q | 1.94
I21H | 2.49
I21D | 2.43
I21F | 3.3
I21K | 1.74
I21V | 2.6
I21N | 1.64
I21Y | 2.79
I21L | 2.52
I21T | 1.47
I21G | 1.62
I21S | 1.55
I21R | 2.49

Variant | protein stability index
I21C | 2.42
I21M | 2.18
L6V | 2.23
L6D | 1.92
L6I | 2.5
L6K | 2.32
L6C | 3.04
L6Y | 3.18
L6M | 1.98
L6P | 1.48
L6N | 1.31
L6E | 1.85
L6H | 3.32
L6Q | 1.89
L6G | 1.47
L6R | 2.56
L6T | 2.46
L6A | 1.94
D8F | 2.81
D8P | 2.46
D8Q | 1.67
D8L | 1.77
D8K | 2.66
D8S | 2.79

Variant | protein stability index
D8I | 1.64
D8Y | 2.14
D8A | 2.49
D8M | 3.19
I24K | 3.08
I24M | 1.9
I24L | 3.35
I24P | 3.4
I24D | 3.09
I24H | 1.93
I24A | 2.65
I24E | 2.65
I24W | 2.09
I24C | 2.44
I24N | 2.64
I24V | 2.97
I24S | 1.92
I24R | 1.98
I24Q | 2.44
I24Y | 2.16
I24G | 2.63
I24F | 3
I24T | 1.73
E23T | 2.79

Variant | protein stability index
E23K | 1.25
E23W | 2.9
E23R | 2.55
E23G | 2.06
E23S | 2.78
E23L | 2.42
E23M | 3.54
E23D | 2.45
E23H | 2.05
E23Y | 2.07
E23F | 4.41
E23Q | 2.47
E23A | 1.85
E23I | 2.71
E23P | 2.08
E23V | 3.08
I15A | 1.66
I15L | 2.31
I15K | 3.7
I15S | 2.17
I15Q | 2.07
I15D | 1.75
I15F | 1.08
I15T | 2.6

Variant | protein stability index
I15G | 2.77
I15N | 2.98
I15P | 2.17
I15E | 1.69
N17E | 2.73
N17T | 3.19
N17Q | 3.06
N17V | 1.59
N17P | 3.1
N17M | 2.57
N17K | 2.4
N17G | 3.5
N17D | 2.84
N17I | 1.73
N17L | 1.78
N17C | 3.65
E5M | 4.08
E5K | 2.95
E5A | 2.6
E5G | 2.46
E5R | 2.13
E5Y | 4.43
E5V | 1.83
E5P | 3.07

Variant | protein stability index
E5Q | 2.38
E5I | 3.5
E5W | 2.82
R19H | 3.1
R19M | 2.14
R19W | 2.74
R19V | 2.64
R19D | 2.11
R19N | 1.76
R19P | 2.25
R19I | 3
R19Q | 2.64
R19E | 2.47
R19S | 2.23
R19T | 2.99
R19G | 3.05
R7C | 3.68
R7Q | 2.85
R7F | 1.85
R7M | 2.07
R7L | 3.71
R7I | 2.6
R7K | 1.51
R7A | 2.27

Variant | protein stability index
R7P | 1.15
R7T | 2.16
R7D | 2.25
R7N | 2.38
N18E | 3.06
N18H | 2.65
N18I | 2.9
N18W | 1.96
N18P | 3.68
N18R | 3.44
N18K | 3.44
N18S | 2.99
N18Y | 2.01
N18D | 2.18
N18G | 2.33
K9D | 2.24
K9C | 3.32
K9E | 2.7
K9S | 1.99
K9V | 2.86
K9P | 2.84
K9L | 2.37
K9A | 1.85
K9F | 2.7

Variant | protein stability index
K9N | 2.29
K9T | 2.35
K9G | 2.21
A13N | 2.31
A13L | 2.61
A13V | 3
A13C | 2.5
A13W | 2.81
A13M | 1.08
A13T | 1.92
A13S | 3.69
A13H | 2.38
A13D | 1.53
A13R | 3.35
A13P | 1.87
A13G | 3.86
A13K | 1.67
A13Q | 1.81
L22S | 2.1
L22Q | 2.88
L22T | 1.93
L22N | 2.83
L22G | 1.8
L22P | 3.33

Variant | protein stability index
L22A | 2.2
L22E | 3.14
L22H | 2.52
L22D | 2.84
L22K | 2.38
L22Y | 2.83
L22M | 2.2
L22F | 3.35
L22V | 2.97
L22R | 2.14
L22C | 2.8
T14N | 3.03
T14L | 1.71
T14Q | 2.99
T14R | 2.59
T14M | 2.52
T14A | 4.11
T14P | 2.52
T14V | 1.02
T14E | 2.77
T14C | 3.4
T14G | 4.63
T14H | 2.53
T14D | 2.57
